Key:
Format in all cases: physicochemical
[1] = Peptide concentration in emulsions prepared with different stirring times; details: initial concentration in emulsion
Description: Emulsions according to this invention were prepared as described in Example 5, using different stirring times.

[2] = Chemical stability of the emulsion (peptide content by LC/MS); details: for Content after 2 month at 5° C.: emulsion of Example 5, 2 month at 5° C.; for Content after 2 month at 25° C.: emulsion of Example 5, 2 month at 25° C.; for Content after 2 month at −20° C.: emulsion of Example 5, 2 month at −20° C.; for Initial content: emulsion of Example 5, initial
Description: The chemical stability of the peptides contained in the emulsion prepared according to Example 5 is assessed by means of the following method.
A sample of 0.9 g of the emulsion of Example 5 is accurately weighted and mixed with 0.1% TFA in DMSO so as to fill a 5 mL volumetric flask. The mixture is then vortexed for 2 minutes and centrifuged for 7 minutes at 4000 rpm. The lower layer is then analyzed by Liquid Chromatography/Mass Spectroscopy (LC/MS) using the following chromatographic conditions:
Column: Advance Bio Peptide Mapping LC column, 2.1×250 mm, 2.7 μm, C18, 120 Å, Agilent® reference n° 651750-902 or equivalent
Column temperature: 35° C.±2° C.
Sample temperature: 5° C.
Needle wash: 0.1% Trifluoroacetic acid (TFA) in dimethylsulfoxide (DMSO)
Mobile phase: Eluent A: 0.2% TFA in 5% acetonitrile
• Eluent B: 0.2% TFA in 95% acetonitrile Gradient table: […]
A standard solution is prepared by transferring 0.9 mL of the batch suspension described in Example 1 with 1.1 mL of Montanide ISA 51 in a 10.0 mL volumetric flask, then vortexing and centrifuging the mixture as described above. The lower layer thus obtained is analyzed in the same conditions as above.
The concentration of each peptide is expressed in mg/g using the formula:
[formula] where: A: is the peak area of each peptide in the sample solution S: is the peak area of each peptide in the standard solution W: is the sample weight expressed in g

[3] = Comparative experiment: emulsion made with high shear mixer, consistency and peptide oxidation; details: high shear mixer batches at 5000 and 8000 rpm
Description: The suspension prepared as described in Example 1 was mixed with the same adjuvant, in the same ratio, except that mixing was conducted by means of a high shear mixer (Silverson® Verso) having a rotor-stator configuration. […] Other batches obtained with the same mixer at 5000 and 8000 rpm led to peptide degradation. Specifically, 8.5% oxidation of peptide […] (SEQ ID NO: 5) was noted after 6 weeks storage at 4° C. and still 2% oxidation at −20° C.

Substance | Concentration ([1]; stirring time 5 minutes) [mg/mL] | Concentration ([1]; stirring time 10 minutes) [mg/mL] | Concentration ([1]; stirring time 15 minutes) [mg/mL] | Content after 2 month at 5° C. [2] [mg/g] | Content after 2 month at 25° C. [2] [mg/g] | Content after 2 month at −20° C. [2] [mg/g] | Initial content [2] [mg/g] | oxidation ([3]; after 6 weeks storage at 4° C.) [%] | oxidation ([3]; storage at −20° C.) [%]
IMIGHLVGV [MPS-214] | 0.53 | 0.53 | 0.53 | 0.51 | 0.50 | 0.51 | 0.53 | 16.5 | 4
KLBPVQLWV [MPS-102] | 0.56 | 0.57 | 0.56 | 0.55 | 0.55 | 0.55 | 0.57 | – | –
LLTFWNPPV [MPS-213] | 0.56 | 0.56 | 0.56 | 0.54 | 0.54 | 0.55 | 0.56 | – | –
RLLQETELV [MPS-112] | 0.56 | 0.57 | 0.56 | 0.55 | 0.55 | 0.55 | 0.57 | – | –
SMPPPGTRV [MPS-103] | 0.53 | 0.56 | 0.54 | 0.54 | 0.54 | 0.55 | 0.55 | 8.5 | 2
YLSGADLNL [MPS-200] | 0.57 | 0.57 | 0.57 | 0.56 | 0.55 | 0.56 | 0.58 | – | –
aKXVAAWTLKAAa [MPS-7, peptide with X and a respectively indicating cyclohexylalanine and d-alanine] | 0.58 | 0.58 | 0.57 | 0.56 | 0.56 | 0.56 | 0.58 | – | –
